Assay results from paper PMC7295619.

Biological target: Porcine circovirus type 3 (PCV3) capsid protein (porcine circovirus type 3)
Experiment: cryo-EM structure; in vitro assembled full-length PCV3-VLP, 1 mg/ml, Titan Krios 300 kV, EMAN2 reconstruction with icosahedral symmetry applied, ~8.5 Å

Substance: Porcine circovirus type 3 (PCV3) capsid protein (natural protein)
- stoichiometry N: 60
